From article PMC11420332 (Biologics : Targets & Therapy, 2024)

Assays:
Experiment in all cases: ELISA
[1] = biological target: IL-17C (Homo sapiens, UniProt Q9P0M4)
[2] = biological target: IL-17D (Homo sapiens, UniProt Q8TAD2)
[3] = biological target: IL-17B (Homo sapiens, UniProt Q9UHF5)

Measured: binding result

Chain of IL-17D (Q8TAD2 16-202): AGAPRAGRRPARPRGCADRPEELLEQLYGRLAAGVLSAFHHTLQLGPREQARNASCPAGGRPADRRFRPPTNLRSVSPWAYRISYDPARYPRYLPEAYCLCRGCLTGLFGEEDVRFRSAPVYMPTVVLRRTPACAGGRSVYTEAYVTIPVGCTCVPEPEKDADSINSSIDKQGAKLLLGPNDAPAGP
Chain of IL-17B (Q9UHF5 21-180): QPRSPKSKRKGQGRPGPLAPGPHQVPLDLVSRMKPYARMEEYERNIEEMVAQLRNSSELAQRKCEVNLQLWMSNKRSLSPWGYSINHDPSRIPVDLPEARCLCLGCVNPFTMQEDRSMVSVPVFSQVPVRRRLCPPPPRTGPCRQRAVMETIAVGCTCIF
Chain of IL-17C (Q9P0M4 19-197): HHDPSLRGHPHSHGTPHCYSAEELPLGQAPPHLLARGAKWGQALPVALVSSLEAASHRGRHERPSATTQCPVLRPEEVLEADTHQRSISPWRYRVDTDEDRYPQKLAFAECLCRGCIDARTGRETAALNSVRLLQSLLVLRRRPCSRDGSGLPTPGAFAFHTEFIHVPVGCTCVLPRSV

B1: Ixekizumab (antibody, V domains shown)
VH: QVQLVQSGAEVKKPGSSVKVSCKASGYSFTDYHIHWVRQAPGQGLEWMGVINPMYGTTDYNQRFKGRVTITADESTSTAYMELSSLRSEDTAVYYCARYDYFTGTGVYWGQGTLVTVSS
VL: DIVMTQTPLSLSVTPGQPASISCRSSRSLVHSRGNTYLHWYLQKPGQSPQLLIYKVSNRFIGVPDRFSGSGSGTDFTLKISRVEAEDVGVYYCSQSTHLPFTFGQGTKLEIK
no binding (tested: 100 ng/well): [1] | [2] | [3]
